Starred links: 1 amine or outer side, 2 acyl side, 3 side chain; linkers in the order of their positions; H or OH if unused. Positions of bridges follow the written chain, without caps; N, C: chain ends. Non-standard residues stand in square brackets, D forms with d. Chains are numbered I, II in the order given. No end group written: not given here. dLys(PYA) = D-lysine Nε-acylated with 4-pentynoic acid, clicked (triazole) to the linker azide, O=C(CCc1cn([*:3])nn1)NCCCC[C@@H](N[*:1])C(=O)[*:2]; TATA = O=C(CC[*:1])N1CN(C(=O)CC[*:2])CN(C(=O)CC[*:3])C1; 1Nal = N[C@@H](Cc1cccc2ccccc12)C(=O)O; Hyp = O=C(O)[C@@H]1C[C@@H](O)CN1; hArg = N=C(N)NCCCC[C@H](N)C(=O)O; tBuAla = CC(C)(C)C[C@H](N)C(=O)O; Nle = CCCC[C@H](N)C(=O)O
Assays:
Assay in all cases: SPR, biotinylated target on streptavidin surface
[1] = molecular target: T1, Nectin-like-3 (4290-S4-050, R&D Systems) (UniProt Q8N3J6 25-367, biotinylated)
T1 sequence (looked up): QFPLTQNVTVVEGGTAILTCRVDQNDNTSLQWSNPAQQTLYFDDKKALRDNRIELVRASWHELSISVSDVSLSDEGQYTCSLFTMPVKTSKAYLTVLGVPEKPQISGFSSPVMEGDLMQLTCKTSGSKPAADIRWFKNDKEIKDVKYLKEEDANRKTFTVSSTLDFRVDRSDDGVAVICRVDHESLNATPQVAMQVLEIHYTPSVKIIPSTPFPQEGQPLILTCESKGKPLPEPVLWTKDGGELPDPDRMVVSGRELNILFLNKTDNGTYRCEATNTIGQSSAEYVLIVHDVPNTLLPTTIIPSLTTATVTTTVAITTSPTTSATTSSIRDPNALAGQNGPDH

[2] = molecular target: T2, Nectin-like-5 (2530-CD-050, R&D Systems) (UniProt P15151 27-343, biotinylated)
T2 sequence (looked up): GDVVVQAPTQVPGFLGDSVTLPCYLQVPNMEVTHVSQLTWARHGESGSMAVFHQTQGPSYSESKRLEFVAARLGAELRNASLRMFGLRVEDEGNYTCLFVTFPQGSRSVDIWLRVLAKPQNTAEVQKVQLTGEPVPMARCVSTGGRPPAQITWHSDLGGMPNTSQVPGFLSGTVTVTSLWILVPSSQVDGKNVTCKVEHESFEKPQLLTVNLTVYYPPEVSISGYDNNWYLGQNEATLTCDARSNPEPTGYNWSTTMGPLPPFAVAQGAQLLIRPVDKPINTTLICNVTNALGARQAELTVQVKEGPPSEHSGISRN

[3] = molecular target: Nectin-3 (3064-N3, R&D Systems) (UniProt Q9NQS3 58-404, limits assumed, biotinylated)
Chain of Nectin-3 (3064-N3, R&D Systems) (Q9NQS3 58-404 limits assumed): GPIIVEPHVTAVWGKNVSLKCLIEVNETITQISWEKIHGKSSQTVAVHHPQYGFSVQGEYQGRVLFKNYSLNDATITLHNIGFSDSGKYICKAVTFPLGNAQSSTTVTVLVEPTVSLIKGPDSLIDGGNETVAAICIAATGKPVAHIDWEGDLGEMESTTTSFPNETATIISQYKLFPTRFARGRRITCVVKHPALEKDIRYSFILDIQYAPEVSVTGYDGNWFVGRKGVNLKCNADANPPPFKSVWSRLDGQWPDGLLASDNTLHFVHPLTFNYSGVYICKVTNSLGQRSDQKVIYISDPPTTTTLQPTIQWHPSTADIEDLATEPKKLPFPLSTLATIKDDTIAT

[4] = molecular target: T3, Nectin-like-2 (3519-S4-050, R&D Systems) (UniProt Q9BY67 45-374, biotinylated)
T3 sequence (looked up): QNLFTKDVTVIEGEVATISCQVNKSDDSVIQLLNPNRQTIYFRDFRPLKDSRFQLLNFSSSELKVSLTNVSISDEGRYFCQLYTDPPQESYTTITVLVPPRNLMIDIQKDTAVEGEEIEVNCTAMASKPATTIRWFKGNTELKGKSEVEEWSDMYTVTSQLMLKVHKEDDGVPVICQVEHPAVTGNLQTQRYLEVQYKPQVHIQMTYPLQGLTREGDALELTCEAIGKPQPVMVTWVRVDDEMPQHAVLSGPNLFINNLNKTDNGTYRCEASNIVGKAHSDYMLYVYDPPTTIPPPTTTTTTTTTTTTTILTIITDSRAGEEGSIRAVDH

[5] = molecular target: T4, Nectin-2 (2229-N2, R&D Systems) (UniProt Q92692 32-360, limits assumed, biotinylated)
T4 sequence (looked up): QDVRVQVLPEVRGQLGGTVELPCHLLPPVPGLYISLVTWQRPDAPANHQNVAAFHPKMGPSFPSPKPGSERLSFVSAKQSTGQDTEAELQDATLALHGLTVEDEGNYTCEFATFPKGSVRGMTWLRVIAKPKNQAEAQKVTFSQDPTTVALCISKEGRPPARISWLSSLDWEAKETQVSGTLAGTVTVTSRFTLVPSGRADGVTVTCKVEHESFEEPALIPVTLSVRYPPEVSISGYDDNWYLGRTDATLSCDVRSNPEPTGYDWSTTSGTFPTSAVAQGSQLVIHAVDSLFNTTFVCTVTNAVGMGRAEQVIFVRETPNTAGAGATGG

[6] = molecular target: T5, Nectin-1 (2880-N1, R&D Systems) (UniProt Q15223 31-334, limits assumed, biotinylated)
T5 sequence (looked up): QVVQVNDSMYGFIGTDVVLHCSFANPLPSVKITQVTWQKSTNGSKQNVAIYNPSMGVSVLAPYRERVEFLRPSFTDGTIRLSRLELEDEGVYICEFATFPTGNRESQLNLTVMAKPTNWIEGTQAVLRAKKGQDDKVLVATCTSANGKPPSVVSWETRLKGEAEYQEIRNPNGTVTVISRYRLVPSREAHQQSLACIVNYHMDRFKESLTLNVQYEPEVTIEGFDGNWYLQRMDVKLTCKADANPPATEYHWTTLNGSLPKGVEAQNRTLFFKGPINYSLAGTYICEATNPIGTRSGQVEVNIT

[7] = molecular target: T6, Nectin-like-4 (4164-S4, R&D Systems) (UniProt Q8NFZ8 21-324, biotinylated)
T6 sequence (looked up): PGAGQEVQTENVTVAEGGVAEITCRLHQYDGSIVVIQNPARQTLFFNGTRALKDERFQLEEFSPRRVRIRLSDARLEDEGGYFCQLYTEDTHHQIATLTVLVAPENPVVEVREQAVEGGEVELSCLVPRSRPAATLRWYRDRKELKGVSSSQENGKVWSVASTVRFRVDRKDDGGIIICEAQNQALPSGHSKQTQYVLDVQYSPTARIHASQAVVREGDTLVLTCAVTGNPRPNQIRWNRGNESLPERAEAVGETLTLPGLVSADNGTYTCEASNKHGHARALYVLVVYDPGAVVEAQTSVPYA

Measured: binding result

B1: heterotandem bicyclic peptide complex BCY11863 (peptide)
peptide 1: CP[1Nal][dD]CM[hArg]DWSTP[Hyp]WC
peptide 2: Ac-C[tBuAla]PE[dLys(PYA)]PYCFADPY[Nle]CA
modifications: linker I:1-I:5-I:15, II:1-II:8-II:15 via TATA; not fully specified (bridges); also: 1:2 complex: BCY8116 + 2x BCY8928
notes: also called Nectin-4/CD137 heterotandem
no binding (tested: 5000 nM): [1] | [2] | [3] | [4] | [5] | [6] | [7]

Reference: patent publication US20230129258A1 (Bicycle, published 2023)
